Results reported in patent US20240343815A1 (CHIA TAI TIANQING PHARMACEUTICAL GROUP, published 2024).
Like-named read-outs stand apart in the source and are kept apart here.

Assays:
[1] = target: T1, human IL4Rα on HEK293T-IL4Rα-STAT6-STAT6LUC-LB2 cells (human, UniProt P24394 26-825); assay: cell-based or functional assay
[2] = target: T2, recombinant human IL4Rα-his protein (human, UniProt P24394 26-232, biotinylated in the capture ELISA and the benchmark blocking ELISA); assay: SPR Biacore, mAb captured, IL4Rα-his analyte
T2 construct: also called biotinylated human IL4Rα-his protein
Method: Briefly, a goat anti-human IgG (GE Healthcare, Cat. No. BR100839, Human Antibody Capture Kit) was covalently attached to a CMS chip (carboxymethylated dextran-coated chip) via the primary amine group using a standard amine coupling kit supplied by Biacore (GE Healthcare, Pittsburgh, PA, USA). Unreacted portions on the biosensor surface were blocked with ethanolamine. Then, the anti-IL4Rα antibody in the present disclosure at 66.67 nM and an anti-IL4Rα antibody benchmark (dupilumab, or DUPIXENT® or BM) at 10 μg/mL were directed through the chip at a flow rate of 10 μL/min. A recombinant human IL4Rα-his protein (prepared in-house, amino acid sequence set forth in SEQ ID NO: 15), a cynomolgus monkey IL4Rα-his protein (Sino Biological Inc., Cat. No. 90897-008H), or a marmoset monkey IL4Rα-his protein (customized product from Sino Biological Inc., denoted as cal-IL4Rα-his, amino acid sequence set forth in SEQ ID NO: 16) serially diluted with an HBS EP buffer (supplied by Biacore) was directed through the chip at a flow rate of 30 μIJmin. The antigen-antibody binding kinetics was tracked for 2 min and the dissociation kinetics was tracked for 10 min. The association and dissociation curves were fitted according to a 1:1 Langmuir binding model using BIA evaluation software, and the KD, Kₐ, and Kd values were determined.
According to the protocol in the examples above, the binding affinity of the humanized antibodies to human IL4Rα was assessed by the BIAcore technique, and the Kₐ, Kd, and KD values were determined and summarized in Table 3.

[3] = target: T1, human IL4Rα on …; assay: cell-based or functional assay; remark: listed apart in the source
[4] = target: T2, recombinant human IL4Rα-his protein; assay: SPR Biacore, mAb captured from supernatant, IL4Rα-his analyte

Inhibition of IL4-induced STAT6 phosphorylation (IC50, nM) [1]: 0.27 nM
Inhibition of IL13-induced STAT6 phosphorylation (IC50, nM) [1]: 0.56 nM
Dissociation (%) [2]: -1.94%
End (RU) [2]: 65.8 RU
Kd [2]: < 0.0304 nM
Start (RU) [2]: 67.1 RU
koff [2]: < 1e-05 s⁻¹
Inhibition of IL4-induced STAT6 phosphorylation (IC50, nM) [3]: 0.26 nM
Inhibition of IL13-induced STAT6 phosphorylation (IC50, nM) [3]: 0.39 nM
Kd [4]: 0.111 nM
koff [4]: 4.04e-05 s⁻¹
B1: Chimeric C2C1A1A1 (antibody, human IgG4 S228P, kappa, V domains shown)
VH: EVQLVESGGGLVQPGGSLKLSCAASGFTFSTYGMSWVRQTPDKRLELVATINSNGGSTSYPDSVKGRFTISRDNAKNTLYLQMSSLKSEDTAMFYCARFFRFRNAMDYWGQGTSVTVSS
VL: DIQMTQSPASLSASVGETVTITCRTSENIYSYLAWYQQKQGKSPQFLVYNAKTLAEGVPSRFSGSGSGTQFSLNINSLQSEDFGSYYCQHYYGPPTWTFGGGTKLEIKR
notes: Mouse variable regions on human IgG4 / kappa constant regions; also called chimeric antibody; Supernatant containing chimeric C2C1A1A1
